From article PMC7352912

Biological target: F-actin of ghost muscle fibres (rabbit (endogenous in m. psoas fibres)) (UniProt P68135)
Test: fluorescence intensity of labelled proteins bound in ghost muscle fibres; actin-Tpm-S1 complexes in ghost fibres; rigor (no nucleotide) or MgADP; with MgATP the ratio of S1 to actin was reduced
Conditions: for stoichiometry N: scale: actin per tropomyosin

Chain of myosin subfragment-1 (P02602 whole entry, looked up, the tested form may be a part): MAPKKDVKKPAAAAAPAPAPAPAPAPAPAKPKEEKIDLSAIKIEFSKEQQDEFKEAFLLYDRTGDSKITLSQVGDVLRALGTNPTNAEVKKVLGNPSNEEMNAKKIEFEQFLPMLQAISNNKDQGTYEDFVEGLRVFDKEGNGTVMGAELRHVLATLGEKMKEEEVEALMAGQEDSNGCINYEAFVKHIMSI
Chain of recombinant wild-type γ-tropomyosin (Tpm3.12) (natural protein) (Q5KR47 whole entry): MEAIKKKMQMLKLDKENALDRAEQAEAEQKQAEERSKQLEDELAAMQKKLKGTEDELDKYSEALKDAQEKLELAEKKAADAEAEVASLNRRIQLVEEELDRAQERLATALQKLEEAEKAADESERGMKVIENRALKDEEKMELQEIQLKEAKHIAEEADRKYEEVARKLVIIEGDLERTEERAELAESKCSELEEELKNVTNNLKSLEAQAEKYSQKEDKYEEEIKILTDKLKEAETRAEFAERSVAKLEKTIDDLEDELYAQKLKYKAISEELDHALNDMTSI

Row | stoichiometry N | stoichiometry N (actin per S1 (molar ratio 1:2.4)) | Substance
1 | 7 |  | E173A mutant γ-tropomyosin (Tpm3.12) (natural protein)
2 |  | 2.4 | myosin subfragment-1 (from UniProt P02602 1-192) (complex)
3 | 7 |  | recombinant wild-type γ-tropomyosin (Tpm3.12) (natural protein)
